The values that follow come from patent publication JP2005515752A (dated 2005).

In test [1] the target is T1, 可溶性ヒトRANKL蛋白質 (human, UniProt O14788 140-317, limits assumed, biotinylated with NHS-biotin at 20:1 molar ratio in the competition ELISA (sites not given); not biotinylated in the cell assays).
T1 sequence (looked up): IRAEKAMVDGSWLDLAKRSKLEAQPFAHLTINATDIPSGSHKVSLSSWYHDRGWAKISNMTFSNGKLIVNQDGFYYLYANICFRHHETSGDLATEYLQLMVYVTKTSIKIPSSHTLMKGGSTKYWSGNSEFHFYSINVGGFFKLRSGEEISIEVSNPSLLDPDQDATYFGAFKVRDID
The experiment in a line: cell-based or functional assay.

Test [2] deals with T1, 可溶性ヒトRANKL蛋白質. The experiment in a line: competition ELISA: soluble competitor against biotinylated shRANKL binding to coated RANK-Fc. Background: An ELISA detects its analyte on a solid surface through an enzyme-linked reagent.
Test [3] deals with T1, 可溶性ヒトRANKL蛋白質. The experiment in a line: competition ELISA: inhibition of biotinylated shRANKL binding to coated RANK-Fc.
For test [4], the target named is T1, 可溶性ヒトRANKL蛋白質. The experiment in a line: not described in an example; paragraph 39 names optical biosensor analysis for the Kd.

B1: ヒトRANK−Fc融合蛋白質 (Fc fusion, human, UniProt Q9Y6Q6 30-212, looked up)
chain: IAPPCTSEKHYEHLGRCCNKCEPGKYMSSKCTTTSDSVCLPCGPDEYLDSWNEEDKCLLHKVCDTGKALVAVVAGNSTTPRRCACTAGYHWSQDCECCRRNTECAPGLGAQHPLQLNKDTVCKPCLAGYFSDAFSSTDKCRPWTNCTFLGKRVEHHGTEKSDAVCSSSLPARKPPNEPHVYLP
notes: Construct limits and Fc not described; also called RANK−Fc蛋白質; not shown: Fc part
For the molecule B1, in test [1], the “IC50, osteoclast formation from human monocytes with human soluble RANKL and M-CSF (multinucleated cells)” value was roughly 0.5 µg/mL; the “concentration of complete inhibition, osteoclast formation from mouse bone marrow cells stimulated by human sRANKL” value (“concentration of complete inhibition” below) was 10 µg/mL. Moreover, the IC50 (usually the midpoint of a concentration-inhibition curve) in test [2] was roughly 6 nM.

B2: OPG−Fc (Fc fusion, UniProt O00300 22-201, looked up)
chain: ETFPPKYLHYDEETSHQLLCDKCPPGTYLKQHCTAKWKTVCAPCPDHYYTDSWHTSDECLYCSPVCKELQYVKQECNRTHNRVCECKEGRYLEIEFCLKHRSCPPGFGVVQAGTPERNTVCKRCPDGFFSNETSSKAPCRKHTNCSVFGLLLTQKGNATHDNICSGNSESTQKCGIDVTL
notes: also called osteoprotegerin-Fc; not shown: Fc part; not described
On to B2, for which, in test [1], the “IC50, osteoclast formation from mouse bone marrow cells stimulated by human sRANKL (TRAP-positive cells per well)” value is roughly 0.2 µg/mL and the “concentration of complete inhibition” value is 1 µg/mL. Also, the IC50 in test [3] is roughly 0.5 nM.

B3: マウスモノクローナル抗体14F3 (antibody, V domains shown)
VH: EVQLVESGGDLVKPGGSLKLSCAASGFTFSRYGMSWVRQTPDKRLEWVATISSGGSYTYYPDSVKGRFTISRDNAKNTLYLQMSSLKSEDTAMYYCARLDGYNYRWYFDVWGTGTTVTVSS
VL: DIVMTQSHKFMSTSVGDRVSITCKASQDVSSAVAWYQQKPGQSPKLLIYSASYRYTGVPDRFTGSGSGTDFTFTISSVQAEDLAVYYCQQHYSSPRTFGGGTNLEIKR
notes: Murine IgG2a/kappa purified from hybridoma; also called RANKL mAb 14F3; mAb14F3
For the molecule B3, in test [1], the “IC50, osteoclast formation from human monocytes with human soluble RANKL and M-CSF (multinucleated cells)” value was roughly 4 µg/mL; the “IC50, osteoclast formation from mouse bone marrow cells stimulated by human sRANKL (TRAP-positive cells per well)” value was roughly 0.2 µg/mL; the “concentration of complete inhibition” value came to 1 µg/mL. Also, the IC50 in test [3] is roughly 2 nM. Besides, the dissociation constant Kd (in general, the free concentration of one partner at which half of the binding sites on the other are occupied at equilibrium, for simple one-to-one binding) in test [4] was roughly 0.1 nM.
